Consider two molecules from PMC12702776 (2025).

The target of assay [1] is T1, RAC1^F28L, purified (human, UniProt P63000 1-192, F28L). As to the kind of experiment: mdGDP-bound RAC1.
The target of assay [2] is T2, RAC1^T17N, purified (human, UniProt P63000 1-192, T17N). As to the kind of experiment: mdGDP-bound RAC1.
Assay [3] deals with T3, RAC1^WT (Ras-related C3 botulinum toxin substrate 1, wild type), purified (human, UniProt P63000 1-192). The experiment in a line: mdGDP-bound RAC1.
Assay [4] deals with T1, RAC1^F28L, purified. As to the kind of experiment: mGppNHp-bound RAC1.
Assay [5] deals with T2, RAC1^T17N, purified. As to the kind of experiment: mGppNHp-bound RAC1.
Assay [6] concerns the target T3, RAC1^WT (Ras-related C3 botulinum toxin …). As to the kind of experiment: mGppNHp-bound RAC1.
The target of the next assay is RAC1^P29S, purified (human, UniProt P63000 1-192, P29S). The experiment in a line: mGppNHp-bound RAC1.

As a reminder, the koff is a measure of how fast the partners let go of each other.

B1: GST-GDI1 (guanosine dissociation inhibitor 1, full-length) (natural protein)
chain: MAEQEPTAEQLAQIAAENEEDEHSVNYKPPAQKSIQEIQELDKDDESLRKYKEALLGRVAVSADPNVPNVVVTGLTLVCSSAPGPLELDLTGDLESFKKQSFVLKEGVEYRIKISFRVNREIVSGMKYIQHTYRKGVKIDKTDYMVGSYGPRAEEYEFLTPVEEAPKGMLARGSYSIKSRFTDDDKTDHLSWEWNLTIKKDWKD
As to B1, the koff with RAC1^F28L, purified [1] stood at 1.03 s⁻¹; in the assay with RAC1^T17N, purified [2], 0.038 s⁻¹; in assay [3] it was 0.693 s⁻¹.

B2: His-IQGAP1 C794 (C-terminal 794 amino acids of IQ motif-containing GTPase-activating protein 1) (domain or fragment)
chain: PPMVVVRKFVHLLDQSDQDFQEELDLMKMREEVITLIRSNQQLENDLNLMDIKIGLLVKNKITLQDVVSHSKKLTKKNKEQLSDMMMINKQKGGLKALSKEKREKLEAYQHLFYLLQTNPTYLAKLIFQMPQNKSTKFMDSVIFTLYNYASNQREEYLLLRLFKTALQEEIKSKVDQIQEIVTGNPTVIKMVVSFNRGARGQNALRQILAPVVKEIMDDKSLNIKTDPVDIYKSWVNQMESQTGEASKLPYDVTPEQALAHEEVKTRLDSSIRNMRAVTDKFLSAIVSSVDKIPYGMRFIAKVLKDSLHEKFPDAGEDELLKIIGNLLYYRYMNPAIVAPDAFDIIDLSAGGQLTTDQRRNLGSIAKMLQHAASNKMFLGDNAHLSIINEYLSQSYQKFRRFFQTACDVPELQDKFNVDEYSDLVTLTKPVIYISIGEIINTHTLLLDHQDAIAPEHNDPIHELLDDLGEVPTIESLIGESSGNLNDPNKEALAKTEVSLTLTNKFDVPGDENAEMDARTILLNTKRLIVDVIRFQPGETLTEILETPATSEQEAEHQRAMQRRAIRDAKTPDKMKKSKSVKEDSNLTLQEKKEKIQTGLKKLTELGTVDPKNKYQELINDIARDIRNQRRYRQRRKAELVKLQQTYAALNSKATFYGEQVDYYKSYIKTCLDNLASKGKVSKKPREMKGKKSKKISLKYTAARLHEKGVLLEIEDLQVNQFKNVIFEISPTEEVGDFEVKAKFMGVQMETFMLHYQDLLQLQYEGVAVMKLFDRAKVNVNLLIFLLNKKFYGK
As for B2, the koff turned out to be 0.206 s⁻¹ in the assay with RAC1^F28L, purified [4]; 0.0142 s⁻¹ in the assay with RAC1^T17N, purified [5]; 0.404 s⁻¹ in assay [6]; 0.138 s⁻¹ with RAC1^P29S, purified.
